Results published in US20050064518A1 (PURDUE PHARMA L P, published 2005).

Target: T1, shed CA 125/O772P polypeptide (human, UniProt Q8WXI7 1-14401, limits assumed)
T1 construct: OVCAR-3 conditioned medium in the western blot; also called high molecular weight species in OVCAR-3 supernatant
Assay: western blot of OVCAR-3 conditioned media (Time 0, 1 hour, 6 hours, Day 1, Day 2, Day 3), chemiluminescence

B1: monoclonal antibody 368.1 (antibody, V domains shown)
VH: EVQLQQSGPELVRTGASVKISCKASGYSFTGFYMHWVKQSLGKSLEWIGYVSCYTGATTYTQKFKGKATFTVDTSSSTAYMQLNSLTSEDSAVYYCAREGDYYSMDFWGQGTSVTVSS
VL: DVVMTQTPLSLPVSLGDQASISCRSSQSLERTNGNTYLHWYLQKPGQSPKLLIYKVSSRFSGVPDRFSGSGSGTDFTLKISRVEAEDLGIYFCSQTTHGPPTCGGGTKLEIK
notes: Murine hybridoma antibody
binding result: no binding (tested: Day 3 conditioned medium)
